How the values were obtained:
[1] = target: RBD of SARS-CoV-1 (Tor 2) (SARS-CoV-1, Tor2, UniProt P59594); assay: BLI
[2] = target: RBD of pangolin CoV (PCoV-GD1) (Pangolin coronavirus GD/1/2019 …); assay: BLI

B1: D27LEY (antibody, V domains shown)
VH: QVQLQQSGAEVKKPGSSVKVSCKASGGTFGNWSISWVRQAPGQGLEWMGGIAPGRGEATYAQKFQGRVTITTDESTSTAYMELSSLRSEDTAVYYCARETWYTSGGMDVWGQGTTVTVSS
VL: SYELTQPPSVSVAPGKTARITCGGNNIGRKSVHWYQQKPGQAPVLVVYDDSDRPSGIPERFSGSNSGNTATLTISRVEAGDEADYYCQVYDLWSSDYVFGTGTKVEIK
Kd [1]: < 0.001 nM
Kd [2]: 0.66 nM
